Assay results published in paper PMC6033465.

B1: human lysozyme c (enzyme)
chain: KVFERCELARTLKRLGMDGYRGISLANWMCLAKWESGYNTRATNYNAGDRSTDYGIFQINSRYWCNDGKTPGAVNACHLSCSALLQDNIADAVACAKRVVRDPQGIRAWVAWRNRCQNRDVRQYVQGCGV

How the values were obtained:
human lysozyme c (human) = human lysozyme c (human) (UniProt P61626)
[1] = target: recombinant wild type SliC (surface-exposed lysozyme inhibitor of c-type lysozyme, NGO1063) of N. gonorrhoeae FA1090 (N. gonorrhoeae FA1090); test: BLI; biotinylated rSliC (20 ug/mL, 10 min) immobilised on streptavidin sensors, increasing concentrations of HL in solution; Kinetic Buffer (20 mM HEPES pH 8, 15 mM NaCl, 0.002 Tween 20, 0.1 mg/mL BSA); association and dissociation 600 s; 2:1 (Heterogeneous Ligand) model; three biological …; OctetRed 96

Row | Molecule | IC50 of SliC against the lytic activity of HL towards M. lysodeikticus peptidoglycan (fluorescein-labeled cell walls; 2.5 μM HL, 0-10 μM SliC) (human lysozyme c (human)) [µM] | Kd [1] [µM]
1 | recombinant wild type SliC (surface-exposed lysozyme inhibitor of c-type lysozyme, NGO1063) of N. gonorrhoeae FA1090 (natural protein) | 1.85 | 
2 | B1 |  | 9.2
